# Assay: yeast display, Sf9 membrane polyspecificity reagent, FACS + sequencing; frameworks hold sequencing errors
# Method in brief: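 Nanobodies came from a synthetic yeast display library in Saccharomyces cerevisiae BJ5465, induced with galactose for 36–48 hours and stained for 1 hour at 4 °C with 10% biotinylated, detergent-solubilized Sf9 membrane reagent. Cells were enriched on streptavidin microbeads and then FACS-sorted, with low and high (top ~1%) gates set on anti-HA fluorescence for expression and streptavidin fluorescence for reagent binding. Each polyreactivity label reflects the gate a clone came from. Genes were amplified by colony PCR, sequenced by MiSeq 2 × 250 and filtered by CDR length.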
row,Sequence,polyreactivity (PSR sort gate)
1,QVQLVESGGGLVQAGGSLRLSCAASGFIFDSYAMGWYRQAPGKERELVATITKGGGRTYYADSVKGRFTISRDNAKNTVYLQMNSLKPEDTAVYYCNARGFSRRKGLDYWGQGTQVTVSS,low polyreactivity
2,QVQLVESGGGLVQAGGSLRLSCAASGFIFDTYAMGWYRQAPVKERELVAAISWTGTDTYYADSVKGRFTISRDNAKNTVYLQMNSLKPEDTAVYYCAARSRYKYSPSGDYWGQGTQVTVSS,high polyreactivity
3,QVQLVESGGGLVQAGGSLRLSCAASGFIFDVNALGWSRQATGKERELVATISKRGGTTYYADSVKGRFTISRDNAKNTVYLQMYSLKPDDTAVYYCAARHQTLRSYRYDYWGQGTQVTVSS,low polyreactivity
4,QVQLVESGGGLVQAGGSLRLSCAASGFIFDWYTMGWYRQAPGKERELVAAITIGGSTDYADSVKGRFTISRDNAKNTVYLQMNSLKPEDTAVYYCNALWYLSGTWYDYWGQGTQVTVSS,low polyreactivity
5,QVQLVESGGGLVQAGGSLRLSCAASGFIFDYNTMGWYRQAPGKERELVADISGGGGRTYYADSVKGRFTISRDNAKNTVYLQMNSLKPEDTAVYYCAALGFYHHAWWISYDYWGQGTQVTVSS,low polyreactivity
6,QVQLVESGGGLVQAGGSLRLSCAASGFIFDYYAMGWDRQAPGKESELVAAIRRSGGTTYYADSVKGRFTISRDNAKNTVYLLMNSLKPEDTAVYYCNVDSGEFDYVWVYTYDYWGQGTQVTVSS,low polyreactivity
7,QVQLVESGGGLVQAGGSLRLSCAASGFIFDYYAMGWYRQAPGKERELVAAISGRGGSTYYADSVKGRFTISRDNAKNTVYLQMNSLKPEDTAVYYCAKGVERYTYGSYWYDYWGQGTQVTVSS,high polyreactivity
8,QVQLVESGGGLVQAGGSLRLSCAASGFIFDYYAMGWYRQAPGKERELVAAITSRSGSTYYADSVKGRFTISRDNAKNTVYLQMNSLKPEDTAVYYCARRFKYGSTAWRFYYWGQGTQVSVSS,high polyreactivity
9,QVQLVESGGGLVQAGGSLRLSCAASGFIFDYYAMGWYRQAPGKERELVASISGDDGRTYYADSVTGRFTISRDNAKNTVYLQMNSLKPEDTAVYDCNAEWGVLNYDYWGQGTQVTVSS,low polyreactivity
10,QVQLVESGGGLVQAGGSLRLSCAASGFIFDYYAMGWYRQAPGKERELVGAITSGDSTNYADSVKGRFTISRDNAKNTVYLQMNSLKPEDTAVYYWGQGTQVTVSS,low polyreactivity
11,QVQLVESGGGLVQAGGSLRLSCAASGFIFEGNAMGWYRPAPGKERELVAAISWSGGRTFYADSVKGRFTISRDNAKNTVYLQMNSLKPEDTAVYYCNALPGRRRWQVDYWGQGTQVTVSS,high polyreactivity
12,QVQLVESGGGLVQAGGSLRLSCAASGFIFEHYAMGWYRQAPGKERELVARISWRGGSTYYGDSVKGRFTISRDNAKNTVYLQMNSLKPEDTAVYYCAKYAHGHKWYGYWGQGTQVTVSS,low polyreactivity
13,QVQLVESGGGLVQAGGSLRLSCAASGFIFEKYTMGWYRQAPGKERELVAAITWNGGSTYYADSVKGRFTISRDNAKNTVYLQMNSLKPEDTAVYYCAARVGWNKRRYDYWGQGTQVTVSS,low polyreactivity
14,QVQLVESGGGLVQAGGSLRLSCAASGFIFEYYAMGWYRQAPGKERELVAAISQSGGSTYYADSVKGRFTISRDNAKNTVYLQMNSLKPEDTAVYYCNKTRYSRSYYEYDYWGQGTQVTVSS,low polyreactivity
15,QVQLVESGGGLVQAGGSLRLSCAASGFIFEYYVMGWYRQAPGKERELVAAISGSGGSTNYADSVKGRFTISRDNAKNTVYLQMNSLKPEDTAVYYCAARYYYFSANIFRYYYWGQGTQVTVSS,high polyreactivity
16,QVQLVESGGGLVQAGGSLRLSCAASGFIFEYYVMGWYRQAPGKERELVAAISSSDGSTNYADSVKGRFTISRDNAKNTVYLQMNSLKPEDTAVYYCAKDLLKSYNRVVVDADDYWGQGTQVTVSS,low polyreactivity
17,QVQLVESGGGLVQAGGSLRLSCAASGFIFFGYAMGWYRQAPGKEMELVAAITSGGSTYYADSVKGRFTISRDNAKNTVYLQMNSLKPEDSAVYYCAAVRWYGSKRYGYWGQGTQVTVSS,high polyreactivity
18,QVQLVESGGGLVQAGGSLRLSCAASGFIFFGYAMGWYRQAPGKERELVAAITSGGSTYYADSVKGRFTISRDNAKNTVYLQMNSLKPEDTAVYYCAASRVRYSYGYPYYYWGQGTQVTVSS,high polyreactivity
19,QVQLVESGGGLVQAGGSLRLSCAASGFIFFINDMGWYRQAPGKERELVAAISWSGGSTYYADSVKGRFTLSRDNAKNTVYLQMNSLKPEDTAVNYCNTDVPTAQYDYWGQGSQVTVSS,low polyreactivity
20,QVQLVESGGGLVQAGGSLRLSCAASGFIFFKYVMGWYRPAPGKERELVAAISTTGGRTYYADSVKGRFTISRDNAKNTVYLQMNSLKPEDTAVYYCAADYPVWNHGFDYWGQGTQVTVSS,high polyreactivity
21,QVQLVESGGGLVQAGGSLRLSCAASGFIFFRYAMGWYRQAPGKERELVAAISSSGGSTYYADSVKGRFTISRDNAKNTVYLQMNSLKPEDTAVYYCAAPRYRIFVGLGMEYWGQGTQVTVSS,high polyreactivity
22,QVQLVESGGGLVQAGGSLRLSCAASGFIFFTYAMGWYRQSPGKERELVAAISSRGGSTYYADSVKGRFTISRDNAKNTVYLQMNSLKPEDTAVYYCAAQAYGRYPYGYWGQGTQVTVSS,high polyreactivity

row,Sequence,polyreactivity (PSR sort gate)
1,QVQLVESGGGLVQAGGSLRLSCAASGFIFFYAMGWYRQAPGKERELVAAISSRGGSTYYADSVKGRFTISRDNAKNTVYLQMNSLKPEDTAVYYCAALLWSAESDYWGQGTQVTVSS,high polyreactivity
2,QVQLVESGGGLVQAGGSLRLSCAASGFIFGAYAMGWYRQAPGKESELVAAISWSGGRTYYADSLTGRFTISRDNAKNTVYLQMNSLKPEDTAVYYCAAAVYTTRYSASEYWGQGTEVTVSS,high polyreactivity
3,QVQLVESGGGLVQAGGSLRLSCAASGFIFGDKAMGWYRQAPGKERELVAAINSGSRTSYADSVKGRFTISRDNAKNTVYLQMNSLNPEDTAVYYCAAESVSSGDNASRYDYWGQGTQVTVSS,low polyreactivity
4,QVQLVESGGGLVQAGGSLRLSCAASGFIFGDYAMGWYRPAPGKERELVAAITWSGDGTYYADSVKGRFTISRDNAKNTVYLQMNSLKPEDTAVYYCAADFSPRRYHNRSFGYWGQGTQVTVSS,low polyreactivity
5,QVQLVESGGGLVQAGGSLRLSCAASGFIFGDYAMGWYRQAPGKERELVAAIRCSDSTTYYADSVKGRFTISRDNAKNTVYLQMNSLKPEDTAVYYCAAVGVVPRKKSARVYYWGQGTQVTVSS,low polyreactivity
6,QVQLVESGGGLVQAGGSLRLSCAASGFIFGFYAMGGYRQAPGKERELVAAISWSGGSTYYADSVKGRFTISRDNAKNTVYLQMNSLKPEDTAVYYCAAYFYYLDDAVTYDYWGQGTQVTVSS,low polyreactivity
7,QVQLVESGGGLVQAGGSLRLSCAASGFIFGFYAMGWYRQAPGKERELVAAISSSGGSTYYADSVKGRFTISRDTAKNTGYLQMNSLKPEDTAVYYCAAYFYYLDDAVTYDYWGQGTQVTVSS,low polyreactivity
8,QVQLVESGGGLVQAGGSLRLSCAASGFIFGGNAMGWYRQAPGKERELVAAISKSGGRTYYADSVKGRFTISRDNAKNTVYLQMNSLKPEDTAVYYCAAVPGRTAEDYGEDYWGQGTQVTVSS,high polyreactivity
9,QVQLVESGGGLVQAGGSLRLSCAASGFIFGGNAMGWYRQAPGKVRELVAAITARSGSTYYADSVKGRFTISRDNAKNTVYLQMNSLKPEDTAVYYCAKGSLGSTRYYYWGQGTQVTVSS,low polyreactivity
10,QVQLVESGGGLVQAGGSLRLSCAASGFIFGGYAMGWYRQAPGKERELVADISSGDSTKYADSVKGRFTISRDNAKNTVYLQMNSLKPEDTAVYYCAADAVVSTWTQFEYDYWGQGTQVTVSS,low polyreactivity
11,QVQLVESGGGLVQAGGSLRLSCAASGFIFGGYAMGWYRQAPGNERDLVAAITSSGGDTYYADSVKGRFTISRDNAKNTVYLQMNSLKPEDTAVYYCAKRARRIGDVNMGSWGQGTQVTVSS,low polyreactivity
12,QVQLVESGGGLVQAGGSLRLSCAASGFIFGGYTMGWYRQAPGKERELVAAISKTGGSTYYADSVKGRFTISRDNAKNTVYLQMNSLKPEDTAVYYCAVARSAYYRGNHWGQGTQVTVSS,high polyreactivity
13,QVQLVESGGGLVQAGGSLRLSCAASGFIFGHNDMGWYRQAPGKERELVASISKSGGDTYYADSVKGRFTISRDNAKNTVYLQMNSLKPEDTAVYYCAADGPDAYYYHRYIYFRRSYYWGHGTQVTVSS,low polyreactivity
14,QVQLVESGGGLVQAGGSLRLSCAASGFIFGHNTMVWYRQAPGKERELVAAITRSGGRTYYADSVKGRFTISRDNAKNTVYLQMNSLKPEDTAVYYCNAYPTRPADGDYDYWGQGTQVTVSS,high polyreactivity
15,QVQLVESGGGLVQAGGSLRLSCAASGFIFGHYAMGWYRPAPGKERELVATIRRDPSRTYYADSVKGRFTISRDNAKNTVYLQMNSLKPEDTAVYYCATAQYIWGRSKYYYWGQGTQVTVSS,high polyreactivity
16,QVQLVESGGGLVQAGGSLRLSCAASGFIFGHYTMGWYRQAPGKERELVAAITTGGRTYYADSVKGRFTISRDNAKNTVYLQMNSLKPEDTAVYYCAARGYIWGQGTQVTVSS,high polyreactivity
17,QVQLVESGGGLVQAGGSLRLSCAASGFIFGINAMGWYRQAPGKERELVAAISKRTGSTYYADSVKGRFTISRDNAKNTVYLQMNSLKPEDTAVYYCNVVRYNGLDKYDYWGQGTQVTVSS,high polyreactivity
18,QVQLVESGGGLVQAGGSLRLSCAASGFIFGIYAMGWYRQAPGKERELVAAISYRGGRTYYADSVKGRFTISRDNAKNTVYLQMNSLKPEDTAVYYCNTRGYRPGYNYWGQCTQVTVSS,high polyreactivity
19,QVQLVESGGGLVQAGGSLRLSCAASGFIFGKYAMGWYRQAPGKEREFVAAITGNGGSTYYADSVKGRFTISRDYAKNTVYLQMNSLKPVDSAVYYCYADRGYRRRSGMVYWGQGTQVSVSS,low polyreactivity
20,QVQLVESGGGLVQAGGSLRLSCAASGFIFGLYDMGWYRQAPGKERELVAAISWSGGSTYYADSVKGRFTISRDNAKNTVYLQMNSLKPQDTAFYYCAAKHVGWYVQEEDYWGQGSQVTVSS,low polyreactivity
21,QVQLVESGGGLVQAGGSLRLSCAASGFIFGLYGMGWYRPAPGKERELVAAISTSSGITYYADSVKGRFTISRDNAKNTVYLQMNSLKPEDTAVYYCAARGHYYDYWGQGTQVTVSS,low polyreactivity

# — the nanobody polyreactivity screen of Harvey et al. (2022)
